In article PMC7007005:
Each block holds one molecule with its values, some of them ahead of it.

Assays:
[1] = target: FMN-containing OdAu1aLOV (isolated LOV domain of Ochromonas danica Aureochrome1a) (Ochromonas danica); test: SEC; analytical gel filtration of OdAu1aLOV in the lit state (column illuminated with 450 nm LEDs); HEPES 20 mM pH 7.4, NaCl 100 mM, MgCl2 10 mM, TCEP 0.3 mM; 100 μM protein
[2] = target: FMN-containing OdAu1aLOV (isolated LOV domain of Ochromonas danica Aureochrome1a) (Ochromonas danica); test: SEC; concentration-dependent analytical gel filtration of lit-state OdAu1aLOV, 200 to 10 μM (Figure S6); column illuminated with 450 nm LEDs
[3] = target: T1, OdAu1abZIPLOV (Aureochrome1a bZIP-LOV), FMN cofactor (Ochromonas danica, UniProt C5NSW6); test: size-exclusion chromatography; dark state, 50 uM protein; DNA binding buffer: 20 mM HEPES pH 7.4, 100 mM NaCl, 10 mM MgCl2, 1 mM TCEP; EMSA: 20 nM DNA, 10% glycerol, BSA, poly-dI-dC, at 4 C; SEC samples incubated 30 mi
[4] = target: T2, OdAu1abZIPLOV (Aureochrome1a bZIP-LOV), 5dFMN cofactor (Ochromonas danica, UniProt C5NSW6); test: as above
[5] = target: T1, OdAu1abZIPLOV (Aureochrome1a bZIP-LOV), …; test: EMSA; lit state (450 nm); supershifted band, putative 2:1 complex; DNA binding buffer: 20 mM HEPES pH 7.4, 100 mM NaCl, 10 mM MgCl2, 1 mM TCEP; EMSA: 20 nM DNA, 10% glycerol, BSA, poly-dI-dC, at 4 C; SEC samples incubated 30 mi
[6] = target: T2, OdAu1abZIPLOV (Aureochrome1a bZIP-LOV), …; test: EMSA; dark state; single shifted band, no supershift; DNA binding buffer: 20 mM HEPES pH 7.4, 100 mM NaCl, 10 mM MgCl2, 1 mM TCEP; EMSA: 20 nM DNA, 10% glycerol, BSA, poly-dI-dC, at 4 C; SEC samples incubated 30 mi
[7] = target: T3, FMN-containing OdAu1a_(bZIPLOV) (bZIP and LOV domains of Ochromonas danica Aureochrome1a) (Ochromonas danica); test: SEC; analytical gel filtration of OdAu1a_(bZIPLOV) in the dark state (Figures S7-S9)
[8] = target: T3, FMN-containing OdAu1a_(bZIPLOV) (bZIP …); test: SEC; analytical gel filtration of OdAu1a_(bZIPLOV) in the lit state (450 nm LEDs; Figures S7-S9)
[9] = target: T4, 5dFMN-containing OdAu1a_(bZIPLOV) (bZIP and LOV domains of Ochromonas danica Aureochrome1a refolded with 5-deazaflavin mononucleotide) (Ochromonas danica); test: SEC; analytical gel filtration of OdAu1a_(bZIPLOV) in the dark state (Figures S7-S9)
[10] = target: T4, 5dFMN-containing OdAu1a_(bZIPLOV) (bZIP …); test: SEC; analytical gel filtration of OdAu1a_(bZIPLOV) in the lit state (450 nm LEDs; Figures S7-S9)

stoichiometry N [1]: 2
stoichiometry N [2]: 2
Molecule: FMN-containing OdAu1aLOV (isolated LOV domain of Ochromonas danica Aureochrome1a) (domain or fragment)

B1: OdAu1a recognition DNA, 24 bp, unlabelled (dsDNA)
DNA 1: TGTAGCGTCTGACGTGGTTCCCAC
DNA 2: GTGGGAACCACGTCAGACGCTACA
binding result [3]: binds
binding result [4]: binds

B2: OdAu1a recognition DNA, TAMRA (dsDNA)
DNA 1: TGTAGCGTCTGACGTGGTTCCCAC
DNA 2: GTGGGAACCACGTCAGACGCTACA
binding result [5]: binds
binding result [6]: binds

stoichiometry N [7]: 2
stoichiometry N [8]: 2
B3: FMN-containing OdAu1a_(bZIPLOV) (bZIP and LOV domains of Ochromonas danica Aureochrome1a) (domain or fragment)
chain: EEQKIERRERNREHAKRSRVRKKFLLESLQHSVRALEEENEKLRNAIRENLQGEAEQLLTRCSCGGPSVIASDPNTATRTLDDPDYSLVKALQTAQQNFVISDPSIPDNPIVYASQGFLTLTGYALSEVLGRNCRFLQGPETDPKAVEKVRKGLERGEDTTVVLLNYRKDGSTFWNQLFIAALRDGEGNVVNYLGVQCKVSEDYAKAFLKNEENEK
modifications: not checked

stoichiometry N [9]: 2
stoichiometry N [10]: 2
B4: 5dFMN-containing OdAu1a_(bZIPLOV) (bZIP and LOV domains of Ochromonas danica Aureochrome1a refolded with 5-deazaflavin mononucleotide) (domain or fragment)
chain: B3 chain
modifications: not checked
